# Test results as given in PMC10110401, “HuR modulation counteracts lipopolysaccharide response in murine macrophages”.
# Target: HuR M1M2 (rM1M2_HuR) (UniProt Q15717 20-186)
# Experiment: HTRF; 20 nM protein, 50 nM probe; hook point titration 0-500 nM protein; TM7nox inhibits with IC50 0.7956 uM (small-molecule value); REMSA: 3.7 nM (or 100 nM) protein, 1 nM probe, 30 min, 4% native PAGE, buffer not given; HTRF: 20 nM protein, 50 nM probe, buffer not given; pull-down: lysis in 20 mM Tris-HCl pH 7.5, 100 mM KCl, 5 mM MgCl2, 0.5% NP-40, probe 0.5 uM in TENT (20 mM Tris-HCl pH 8.0, 2 mM EDTA, 500 mM …)
# Conditions: protein: recombinant; tags: His-tag; label: biotin; single strand
# Sequence of HuR M1M2 (rM1M2_HuR) (Q15717 20-186): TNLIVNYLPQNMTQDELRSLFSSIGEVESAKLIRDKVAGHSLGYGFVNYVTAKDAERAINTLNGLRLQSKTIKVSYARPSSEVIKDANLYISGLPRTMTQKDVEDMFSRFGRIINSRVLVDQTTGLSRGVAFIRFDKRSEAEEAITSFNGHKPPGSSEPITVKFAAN
binder,measurement,value
"AUUAUUUAUUAUUUAUUUAUUAUUUA (ssRNA, 5'-biotin) [Bi-TNF ARE probe]",binding result,binds
